PMC9241633

Tested on: KbvR (Klebsiella pneumoniae)
Assay: MST
Conditions: MST: constant labeled KbvR, 2-fold DNA dilution series (16 samples), 30 min incubation at room temperature, measured at 30 C, 80% excitation power, medium LED …

For ompK36 promoter region, the Kd was 450 nM.
